Laboratory results reported in PMC7728236 (PLoS Pathogens, 2020).

Molecular target: the molecule itself
Experiment: cryo-EM structure

B1: full-length hemagglutinin (HA) of influenza virus A/Hong Kong/1/1968 (H3N2), trypsin-cleaved into HA1/HA2 (natural protein)
chain 1: not shown
chain 2: not shown
notes: copies: 3 + 3
stoichiometry N: 3
